Reference: patent US20230235013A1 (MABSOLVE, published 2023)

Assays:
[1] = target: T1, human FcRn (R&D Systems Cat. No. 8639-Fc) (human, UniProt P55899 24-297; P61769 21-119); assay: SPR, FcRn captured; Expt 3
[2] = target: T1, human FcRn (R&D Systems Cat. No. …); assay: SPR, FcRn captured; Expt 2
[3] = target: T2, Human C1q (Sigma Cat. No. 20476), HRP-labelled (human, UniProt P02745 23-245; P02746 28-253; P02747 29-245); assay: ELISA, antibody coated, HRP-C1q; Expt 2, buffer alone 0.091
T2 construct: Coupled to horse-radish peroxidase with Lightning-Link kit; also called HRP-labelled C1q

[4] = target: T1, human FcRn (R&D Systems Cat. No. …); assay: SPR, FcRn captured; Mean
[5] = target: T1, human FcRn (R&D Systems Cat. No. …); assay: SPR, FcRn captured; Expt 1
[6] = target: T2, Human C1q (Sigma Cat. No. 20476), …; assay: ELISA, antibody coated, HRP-C1q; Expt 2, buffer alone 0.051
[7] = target: T2, Human C1q (Sigma Cat. No. 20476), …; assay: ELISA, antibody coated, HRP-C1q; Expt 1, buffer alone 0.053
[8] = target: T3, C-terminus biotinylated human FcRn attached to Streptavidin-SmBiT (FcRn-SAv-SmBiT) (human, UniProt P55899 24-297; P61769 21-119, limits assumed, C-terminus biotinylated (AviTag), attached to Streptavidin-SmBiT); assay: NanoBiT FcRn competition immunoassay, competitor Tracer-LgBiT human IgG, pH 6.0
T3 construct: Kit reagent; also called hFcRn-AviTag

[9] = target: T2, Human C1q (Sigma Cat. No. 20476), …; assay: ELISA, antibody coated, HRP-C1q; Expt 1, buffer alone 0.061

| Binder | Mean Absorbance [6] | Mean Absorbance [7] | Mean binding activity (% of wild-type reference) [8] | also measured |
| --- | --- | --- | --- | --- |
| anti-CD20 (rituximab) human IgG1 L234Q/G236R (antibody, EU numbering; also called 2-30; copies: 2 + 2) heavy: not shown light: QIVLSQSPAILSASPGEKVTMTCRASSSVSYIHWFQQKPGSSPKPWIYATSNLASGVPVRFSGSGSGTSYSLTISRVEAEDAATYYCQQWTSNPPTFGGGTKLEIKRTVAAPSVFIFPPSDEQLKSGTASVVCLLNNFYPREAKVQWKVDNALQSGNSQESVTEQDSKDSTYSLSSTLTLSKADYEKHKVYACEVTHQGLSSPVTKSFNRGEC |  |  |  | Corrected and normalised response (% of wild-type reference) [1]: 99 % of wild-type reference; Corrected and normalised response (% of wild-type reference) [2]: 99 % of wild-type reference; Mean Absorbance [3]: 0.089 absorbance (450 nm); Corrected and normalised response (% of wild-type reference) [4]: 99.3 % of wild-type reference; Corrected and normalised response (% of wild-type reference) [5]: 100 % of wild-type reference |
| anti-CD20 (rituximab variable regions) human IgG4 L234Q/L235S/G236R (with S228P) (antibody, copies: 2 + 2) heavy: QVQLQQPGAELVKPGASVKMSCKASGYTFTSYNMHWVKQTPGRGLEWIGAIYPGNGDTSYNQKFKGKATLTADKSSSTAYMQLSSLTSEDSAVYYCARSTYYGGDWYFNVWGAGTTVTVSSASTKGPSVFPLAPCSRSTSESTAALGCLVKDYFPEPVTVSWNSGALTSGVHTFPAVLQSSGLYSLSSVVTVPSSSLGTKTYTCNVDHKPSNTKVDKRVESKYGPPCPPCPAPEQSRGPSVFLFPPKPKDTLMISRTPEVTCVVVDVSQEDPEVQFNWYVDGVEVHNAKTKPREEQFNSTYRVVSVLTVLHQDWLNGKEYKCKVSNKGLPSSIEKTISKAKGQPREPQVYTLPPSQEEMTKNQVSLTCLVKGFYPSDIAVEWESNGQPENNYKTTPPVLDSDGSFFLYSRLTVDKSRWQEGNVFSCSVMHEALHNHYTQKSLSLSLGK light: QIVLSQSPAILSASPGEKVTMTCRASSSVSYIHWFQQKPGSSPKPWIYATSNLASGVPVRFSGSGSGTSYSLTISRVEAEDAATYYCQQWTSNPPTFGGGTKLEIKRTVAAPSVFIFPPSDEQLKSGTASVVCLLNNFYPREAKVQWKVDNALQSGNSQESVTEQDSKDSTYSLSSTLTLSKADYEKHKVYACEVTHQGLSSPVTKSFNRGEC | 0.052 absorbance (450 nm) | 0.051 absorbance (450 nm) | 114 % of wild-type reference |  |
| anti-CD20 (rituximab variable regions) human IgG2 L234Q/L235S (antibody, also called 11.144; copies: 2 + 2) heavy: QVQLQQPGAELVKPGASVKMSCKASGYTFTSYNMHWVKQTPGRGLEWIGAIYPGNGDTSYNQKFKGKATLTADKSSSTAYMQLSSLTSEDSAVYYCARSTYYGGDWYFNVWGAGTTVTVSSASTKGPSVFPLAPCSRSTSESTAALGCLVKDYFPEPVTVSWNSGALTSGVHTFPAVLQSSGLYSLSSVVTVPSSNFGTQTYTCNVDHKPSNTKVDKTVERKCCVECPPCPAPPQSGPSVFLFPPKPKDTLMISRTPEVTCVVVDVSHEDPEVQFNWYVDGVEVHNAKTKPREEQFNSTFRVVSVLTVVHQDWLNGKEYKCKVSNKGLPAPIEKTISKTKGQPREPQVYTLPPSREEMTKNQVSLTCLVKGFYPSDIAVEWESNGQPENNYKTTPPMLDSDGSFFLYSKLTVDKSRWQQGNVFSCSVMHEALHNHYTQKSLSLSPGK light: QIVLSQSPAILSASPGEKVTMTCRASSSVSYIHWFQQKPGSSPKPWIYATSNLASGVPVRFSGSGSGTSYSLTISRVEAEDAATYYCQQWTSNPPTFGGGTKLEIKRTVAAPSVFIFPPSDEQLKSGTASVVCLLNNFYPREAKVQWKVDNALQSGNSQESVTEQDSKDSTYSLSSTLTLSKADYEKHKVYACEVTHQGLSSPVTKSFNRGEC |  |  | 143 % of wild-type reference |  |
| anti-CD20 (rituximab) human IgG1 L234Q/L235S/G236R/M252Y/S254T/T256E (antibody, EU numbering; also called 10.145; copies: 2 + 2) heavy: QVQLQQPGAELVKPGASVKMSCKASGYTFTSYNMHWVKQTPGRGLEWIGAIYPGNGDTSYNQKFKGKATLTADKSSSTAYMQLSSLTSEDSAVYYCARSTYYGGDWYFNVWGAGTTVTVSSASTKGPSVFPLAPSSKSTSGGTAALGCLVKDYFPEPVTVSWNSGALTSGVHTFPAVLQSSGLYSLSSVVTVPSSSLGTQTYICNVNHKPSNTKVDKKVEPKSCDKTHTCPPCPAPEQSRGPSVFLFPPKPKDTLYITREPEVTCVVVDVSHEDPEVKFNWYVDGVEVHNAKTKPREEQYNSTYRVVSVLTVLHQDWLNGKEYKCKVSNKALPAPIEKTISKAKGQPREPQVYTLPPSRDELTKNQVSLTCLVKGFYPSDIAVEWESNGQPENNYKTTPPVLDSDGSFFLYSKLTVDKSRWQQGNVFSCSVMHEALHNHYTQKSLSLSPGK light: QIVLSQSPAILSASPGEKVTMTCRASSSVSYIHWFQQKPGSSPKPWIYATSNLASGVPVRFSGSGSGTSYSLTISRVEAEDAATYYCQQWTSNPPTFGGGTKLEIKRTVAAPSVFIFPPSDEQLKSGTASVVCLLNNFYPREAKVQWKVDNALQSGNSQESVTEQDSKDSTYSLSSTLTLSKADYEKHKVYACEVTHQGLSSPVTKSFNRGEC | 0.056 absorbance (450 nm) | 0.052 absorbance (450 nm) | 3940 % of wild-type reference |  |
| anti-CD20 (rituximab) human IgG1 L234Q/L235S/G236R/T250Q/M428L (antibody, EU numbering; also called 10.146; copies: 2 + 2) heavy: QVQLQQPGAELVKPGASVKMSCKASGYTFTSYNMHWVKQTPGRGLEWIGAIYPGNGDTSYNQKFKGKATLTADKSSSTAYMQLSSLTSEDSAVYYCARSTYYGGDWYFNVWGAGTTVTVSSASTKGPSVFPLAPSSKSTSGGTAALGCLVKDYFPEPVTVSWNSGALTSGVHTFPAVLQSSGLYSLSSVVTVPSSSLGTQTYICNVNHKPSNTKVDKKVEPKSCDKTHTCPPCPAPEQSRGPSVFLFPPKPKDQLMISRTPEVTCVVVDVSHEDPEVKFNWYVDGVEVHNAKTKPREEQYNSTYRVVSVLTVLHQDWLNGKEYKCKVSNKALPAPIEKTISKAKGQPREPQVYTLPPSRDELTKNQVSLTCLVKGFYPSDIAVEWESNGQPENNYKTTPPVLDSDGSFFLYSKLTVDKSRWQQGNVFSCSVLHEALHNHYTQKSLSLSPGK light: QIVLSQSPAILSASPGEKVTMTCRASSSVSYIHWFQQKPGSSPKPWIYATSNLASGVPVRFSGSGSGTSYSLTISRVEAEDAATYYCQQWTSNPPTFGGGTKLEIKRTVAAPSVFIFPPSDEQLKSGTASVVCLLNNFYPREAKVQWKVDNALQSGNSQESVTEQDSKDSTYSLSSTLTLSKADYEKHKVYACEVTHQGLSSPVTKSFNRGEC | 0.062 absorbance (450 nm) | 0.051 absorbance (450 nm) | 650 % of wild-type reference |  |
| anti-CD20 (rituximab) human IgG1 L234S/L235V/G236R (antibody, EU numbering; also called 2-53; copies: 2 + 2) heavy: QVQLQQPGAELVKPGASVKMSCKASGYTFTSYNMHWVKQTPGRGLEWIGAIYPGNGDTSYNQKFKGKATLTADKSSSTAYMQLSSLTSEDSAVYYCARSTYYGGDWYFNVWGAGTTVTVSSASTKGPSVFPLAPSSKSTSGGTAALGCLVKDYFPEPVTVSWNSGALTSGVHTFPAVLQSSGLYSLSSVVTVPSSSLGTQTYICNVNHKPSNTKVDKKVEPKSCDKTHTCPPCPAPESVRGPSVFLFPPKPKDTLMISRTPEVTCVVVDVSHEDPEVKFNWYVDGVEVHNAKTKPREEQYNSTYRVVSVLTVLHQDWLNGKEYKCKVSNKALPAPIEKTISKAKGQPREPQVYTLPPSRDELTKNQVSLTCLVKGFYPSDIAVEWESNGQPENNYKTTPPVLDSDGSFFLYSKLTVDKSRWQQGNVFSCSVMHEALHNHYTQKSLSLSPGK light: QIVLSQSPAILSASPGEKVTMTCRASSSVSYIHWFQQKPGSSPKPWIYATSNLASGVPVRFSGSGSGTSYSLTISRVEAEDAATYYCQQWTSNPPTFGGGTKLEIKRTVAAPSVFIFPPSDEQLKSGTASVVCLLNNFYPREAKVQWKVDNALQSGNSQESVTEQDSKDSTYSLSSTLTLSKADYEKHKVYACEVTHQGLSSPVTKSFNRGEC |  |  | 94.1 % of wild-type reference | Mean Absorbance [9]: 0.072 absorbance (450 nm); Mean Absorbance [3]: 0.09 absorbance (450 nm) |
| anti-CD20 (rituximab variable regions) rabbit IgG L234Q/L235S/G236R (antibody, also called 23.77) heavy: QVQLQQPGAELVKPGASVKMSCKASGYTFTSYNMHWVKQTPGRGLEWIGAIYPGNGDTSYNQKFKGKATLTADKSSSTAYMQLSSLTSEDSAVYYCARSTYYGGDWYFNVWGAGTTVTVSSGQPKAPSVFPLAPCCGDTPSSTVTLGCLVKGYLPEPVTVTWNSGTLTNGVRTFPSVRQSSGLYSLSSVVSVTSSSQPVTCNVAHPATNTKVDKTVAPSTCSKPTCPPPEQSRGPSVFIFPPKPKDTLMISRTPEVTCVVVDVSEDDPEVQFTWYINNEQVRTARPPLREQQFNSTIRVVSTLPIAHEDWLRGKEFKCKVHNKALPAPIEKTISKARGQPLEPKVYTMGPPREELSSRSVSLTCMINGFYPSDISVEWEKNGKAEDNYKTTPAVLDSDGSYFLYSKLSVPTSEWQRGDVFTCSVMHEALHNHYTQKSISRSPGK light: QIVLSQSPAILSASPGEKVTMTCRASSSVSYIHWFQQKPGSSPKPWIYATSNLASGVPVRFSGSGSGTSYSLTISRVEAEDAATYYCQQWTSNPPTFGGGTKLEIKRDPVAPSVLLFPPSKEELTTGTATIVCVANKFYPSDITVTWKVDGTTQQSGIENSKTPQSPEDNTYSLSSTLSLTSAQYNSHSVYTCEVVQGSASPIVQSFNRGDC | 0.048 absorbance (450 nm) | 0.051 absorbance (450 nm) | 147 % of wild-type reference |  |
